Source: article PMC3642092

Target: F-actin (filamentous rabbit skeletal muscle actin) (rabbit), P68135
Assay: co-sedimentation
Conditions: remark: other sources report otherwise

B1: utrophin actin binding domain, utrophin residues 1-261 (UTR261), wildtype, P46939 1-261 (domain or fragment)
chain: MAKYGEHEASPDNGQNEFSDIIKSRSDEHNDVQKKTFTKWINARFSKSGKPPINDMFTDLKDGRKLLDLLEGLTGTSLPKERGSTRVHALNNVNRVLQVLHQNNVELVNIGGTDIVDGNHKLTLGLLWSIILHWQVKDVMKDVMSDLQQTNSEKILLSWVRQTTRPYSQVNVLNFTTSWTDGLAFNAVLHRHKPDLFSWDKVVKMSPIERLEHAFSKAQTYLGIEKLLDPEDVAVQLPDKKSIIMYLTSLFEVLPQQVTID
B1 was tested. Which Kd did it give?
Its Kd is 19.2 µM.

And the stoichiometry N?
Its stoichiometry N is 1.
